T1: human OSM (human, UniProt P13725 26-221, limits assumed)
T1 sequence (looked up): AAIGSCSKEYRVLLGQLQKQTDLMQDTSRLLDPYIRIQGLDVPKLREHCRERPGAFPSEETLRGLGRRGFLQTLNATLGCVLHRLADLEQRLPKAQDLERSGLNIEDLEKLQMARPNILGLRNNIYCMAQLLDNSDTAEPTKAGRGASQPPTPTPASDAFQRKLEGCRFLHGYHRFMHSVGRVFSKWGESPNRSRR

T2: human CNTF (human, UniProt P26441 1-200, limits assumed)
T2 sequence (looked up): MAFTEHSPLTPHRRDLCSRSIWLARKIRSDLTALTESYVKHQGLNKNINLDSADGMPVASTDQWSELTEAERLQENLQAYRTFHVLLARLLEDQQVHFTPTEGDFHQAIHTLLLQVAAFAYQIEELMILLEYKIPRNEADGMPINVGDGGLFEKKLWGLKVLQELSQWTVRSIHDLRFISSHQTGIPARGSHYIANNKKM


Assays:
human LIF protein [1] = biological target: T3, human LIF protein (human, UniProt P15018 23-202); assay: cell-based or functional assay
human OSM = biological target: T1, human OSM; assay: ELISA, human OSM coated at 1 µg/mL, HRP goat anti-mouse Fab, A450
Description: (§1) After washed four times with PBST, HRP-labeled goat anti-mouse Fab secondary antibodies were added and incubated at room temperature for 1 h. After washed four times with PBST, TMB colored solution was added and color developing for 10 min at room temperature. The absorption value at 450 nm was read by the enzyme maker. The data were analyzed and plotted using Origin pro 9 software.

human IL-6 = human IL-6 (human, UniProt P05231 30-212, limits assumed); assay: ELISA, human IL-6 coated at 1 µg/mL, HRP goat anti-mouse Fab, A450
Description: as §1

human CNTF = biological target: T2, human CNTF; assay: ELISA, human CNTF coated at 1 µg/mL, HRP goat anti-mouse Fab, A450
Description: as §1

human LIF protein [2] = biological target: T3, human LIF protein; assay: competition ELISA, LIF coated, competitor LIFR-Fc 0.6125 ug/mL detected with anti-human Fc
human LIF protein [3] = biological target: T3, human LIF protein; assay: BLI (Gator), antibody on anti-human Fc biosensor, human LIF in solution
Description: The affinity of anti-LIF antibody to human LIF protein was determined using Gator. The anti-human LIF antibody was first diluted to 5 ug/mL with PBS and then added to A-F wells in second column of the 96-well plate (200 μL per well). […] PBS was added to A-F wells in the first and third columns (200 μL per well). The 96-well plates were placed into the instrument and detected with anti-human Fc biosensor.

human LIF protein [4] = biological target: T3, human LIF protein; assay: ELISA, antigen coated 0.5 ug/ml, 293S supernatant non-heated, antibody 1 ug/mL
Description: (§2) Each well was coated with 100 μL of 0.5 μg/ml antigen and incubate overnight at 4° C., and the plates were washed three times with 300 μL of Wash Buffer. The plates were closed with 200 μL of Closure Buffer (2% bovine serum albumin) for 60 min at room temperature. The plates were washed three times with 300 μL of Wash Buffer. 100 μL of diluted anti-LIF antibody at different concentrations was added to each well and incubate for 1 hour at room temperature. The plates were washed 4 times with 300 μL of Wash Buffer. 100 μL of HRP-labeled goat anti-human Fc secondary antibody at a dilution of 1:5000 was added and incubate for 1 hour at room temperature. The plates were washed 6 times with 300 μL of Wash Buffer. 100 μL of H₂O₂-Amplx Color Development Solution was added for developing the color for 10 min at room temperature under dark conditions. The OD 450 value was read by an enzyme marker. Heat treatment: the expression medium was heated on the PCR machine at 70° C. for 5 min and then rapidly cooled to room temperature. Perform subsequent ELISA assays as above.

human LIF protein [5] = biological target: T3, human LIF protein; assay: ELISA, antigen coated 0.5 ug/ml, 293S supernatant non-heated, antibody 0.2 ug/mL
Description: as §2

human LIF protein [6] = biological target: T3, human LIF protein; assay: ELISA, antigen coated 0.5 ug/ml, 293S supernatant non-heated, antibody 0.04 ug/mL
Description: as §2

human LIF protein [7] = biological target: T3, human LIF protein; assay: ELISA, antigen coated 0.5 ug/ml, 293S supernatant heated 70 C 5 min, antibody 1 ug/mL
Description: as §2

human LIF protein [8] = biological target: T3, human LIF protein; assay: ELISA, antigen coated 0.5 ug/ml, 293S supernatant heated 70 C 5 min, antibody 0.2 ug/mL
Description: as §2

human LIF protein [9] = biological target: T3, human LIF protein; assay: ELISA, antigen coated 0.5 ug/ml, 293S supernatant heated 70 C 5 min, antibody 0.04 ug/mL
Description: as §2

[10] = biological target: T4, Mut3 heterozygous LIF protein (human LIF with residues 182-202 of …, UniProt P15018 23-201, limits assumed); assay: western blot of 293T culture supernatants, primary antibody 1 µg/mL, HRP anti-human Fc
T4 construct: Secreted into the supernatant of transfected 293T cells; also called Mut3 protein
Description: (§3) The supernatant of 293T cells transfected with human LIF full-length gene sequence, Mut3 and Mut4 protein sequences after 3 days of culture, and the negative control of 293T cell culture supernatant were taken, 5×SDS-PAGE loading buffer was added, and boiled for 10 minutes. Then 10 μL of sample was taken for SDS-PAGE electrophoresis, and then the electrophoretic bands were transferred to PVDF membrane for western blot detection. The primary antibody for detection was 38E huH3L2 or 38E huH3L4 antibody at a concentration of 1 μg/mL, and was incubated for 2 hours at room temperature. Then washed three times in PBST buffer and diluted HRP-labeled sheep anti-human Fc secondary antibody at a dilution ration of 1:3000 was added, incubated with the secondary antibody for 2 hours at room temperature, washed three times in PBST buffer and enhanced Chemiluminescent solution (Perice, item no. 34079) was added and incubated. An Amersham Imager 600 ultra-sensitive multifunctional imager was used for detection and photograph. […] The same results were obtained in the M1 cell proliferation assay, and the results were detailed in subfigure B in FIG. 22. Therefore, the epitope sequences recognized by the 38E huH3L2 and 38E huH3L4 antibodies were determined to be […] (SEQ ID NO: 61).

[11] = biological target: T5, Mut4 heterozygous LIF protein (human LIF with residues 166-202 of …, UniProt P15018 23-201, limits assumed); assay: as above
T5 construct: Secreted into the supernatant of transfected 293T cells; also called Mut4 protein
Description: as §3

human LIF protein [12] = biological target: T3, human LIF protein; assay: competition ELISA: human LIF coated at 1 µg/mL, LIFR-Fc 0.6125 µg/mL added together with the antibody, A450
Description: The recombinant human LIF protein was coated on the enzyme label plate at a concentration of 1 μg/mL, LIFR protein (expressed fusedly with human FC) at a concentration of 0.6125 μg/mL was added (50 μL/well), and the anti-human LIF antibodies 38E10E1C11, P36-033 and 38E10E1C11R which is recombinantly expressed by CHO cells (SEQ ID NOs: 41 and 43) at different concentrations simultaneously were added separately (50 μL/well) and incubated for 2 h at room temperature. After washed four times with PBST, incubated with HRP-labeled goat anti-mouse FC secondary antibody for 1 h at room temperature. Then the plates were washed four times with PBST and added with TMB coloured solution in for 10 minutes. The absorption value at 450 nm is quantitated using an enzyme-labelling measuring instrument, and the data was analyzed and plotted using Origin pro 9 software.

human IL-6, sequence (P05231 30-212 limits assumed): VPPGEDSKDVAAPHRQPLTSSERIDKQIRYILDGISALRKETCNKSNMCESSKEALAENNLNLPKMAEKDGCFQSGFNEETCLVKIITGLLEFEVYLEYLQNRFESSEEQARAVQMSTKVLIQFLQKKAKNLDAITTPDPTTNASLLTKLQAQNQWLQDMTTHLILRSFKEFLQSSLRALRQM

Binder | EC50, reversal of proliferation inhibition of M1 cells (CCK-8) (human LIF protein [1]) [µg/mL] | binding result (human OSM) | binding result (human IL-6) | binding result (human CNTF) | IC50 (human LIF protein [2]) [µg/mL] | Kd (human LIF protein [3]) [nM] | koff (human LIF protein [3]) [s⁻¹] | kon (human LIF protein [3]) [M⁻¹ s⁻¹] | ELISA signal (human LIF protein [4]) | ELISA signal (human LIF protein [5]) | ELISA signal (human LIF protein [6]) | ELISA signal (human LIF protein [7]) | ELISA signal (human LIF protein [8]) | ELISA signal (human LIF protein [9]) | binding result [10] | binding result [11] | IC50, P-STAT3 (TYR705) in KP4 cells, HTRF kit (human LIF protein [1]) [nM] | IC50 (read off the curve) (human LIF protein [12]) [µg/mL]
38E HuH3L2-m (antibody, mouse IgG1, kappa, Humanized variable regions of 38E HuH3L2 on mouse IgG1 / kappa constant regions) heavy: EVMLVESGGGLVQPGGSLRLSCAASGFIFSSYAMSWVRQAPETRLEWVATISSGGSNTYSPDTVKGRFTISRDNSKNTLYLQMNSLRAEDTAMYYCARYYGYYFDFWGQGTLLTVSSAKTTPPSVYPLAPGSAAQTNSMVTLGCLVKGYFPEPVTVTWNSGSLSSGVHTFPAVLQSDLYTLSSSVTVPSSTWPSETVTCNVAHPASSTKVDKKIVPRDCGCKPCICTVPEVSSVFIFPPKPKDVLTITLTPKVTCVVVDISKDDPEVQFSWFVDDVEVHTAQTQPREEQFNSTFRSVSELPIMHQDWLNGKEFKCRVNSAAFPAPIEKTISKTKGRPKAPQVYTIPPPKEQMAKDKVSLTCMITDFFPEDITVEWQWNGQPAENYKNTQPIMDTDGSYFVYSKLNVQKSNWEAGNTFTCSVLHEGLHNHHTEKSLSHSPGK light: DIHMTQSPSSLSASVGDRVTITCRASENIYSYLAWYQQKPGKSPKLLVYNAKTLAEGVPSRFSGSGSGTDFTLTISSLQPEDFATYYCQHHYVTPLTFGQGTKLEIKRADAAPTVSIFPPSSEQLTSGGASVVCFLNNFYPKDINVKWKIDGSERQNGVLNSWTDQDSKDSTYSMSSTLTLTKDEYERHNSYTCEATHKTSTSPIVKSFNRNEC | 8.93 | no binding (tested: 25 ug/ml) | no binding (tested: 25 ug/ml) | no binding (tested: 25 ug/ml) | 0.145 | – | – | – | – | – | – | – | – | – | – | – | – | –
38E HuH3L4-m (antibody, mouse IgG1, kappa, Humanized variable regions of 38E HuH3L4 on mouse IgG1 / kappa constant regions) heavy: EVMLVESGGGLVQPGGSLRLSCAASGFIFSSYAMSWVRQAPETRLEWVATISSGGSNTYSPDTVKGRFTISRDNSKNTLYLQMNSLRAEDTAMYYCARYYGYYFDFWGQGTLLTVSSAKTTPPSVYPLAPGSAAQTNSMVTLGCLVKGYFPEPVTVTWNSGSLSSGVHTFPAVLQSDLYTLSSSVTVPSSTWPSETVTCNVAHPASSTKVDKKIVPRDCGCKPCICTVPEVSSVFIFPPKPKDVLTITLTPKVTCVVVDISKDDPEVQFSWFVDDVEVHTAQTQPREEQFNSTFRSVSELPIMHQDWLNGKEFKCRVNSAAFPAPIEKTISKTKGRPKAPQVYTIPPPKEQMAKDKVSLTCMITDFFPEDITVEWQWNGQPAENYKNTQPIMDTDGSYFVYSKLNVQKSNWEAGNTFTCSVLHEGLHNHHTEKSLSHSPGK light: DIHMTQSPSSLSASVGDRVTITCRASENIYSYLAWYQQKQGKSPQLLVYNAKTLAEGVPSRFSGSGSGTQFTLKINSLQPEDFATYYCQHHYVTPLTFGQGTKLEIKRADAAPTVSIFPPSSEQLTSGGASVVCFLNNFYPKDINVKWKIDGSERQNGVLNSWTDQDSKDSTYSMSSTLTLTKDEYERHNSYTCEATHKTSTSPIVKSFNRNEC | 6.52 | no binding (tested: 25 ug/ml) | no binding (tested: 25 ug/ml) | no binding (tested: 25 ug/ml) | 0.103 | – | – | – | – | – | – | – | – | – | – | – | – | –
38E HuH3L2 (antibody, human IgG1, kappa, N297A, Humanized, human IgG1 / kappa) heavy: not shown light: DIHMTQSPSSLSASVGDRVTITCRASENIYSYLAWYQQKPGKSPKLLVYNAKTLAEGVPSRFSGSGSGTDFTLTISSLQPEDFATYYCQHHYVTPLTFGQGTKLEIKRTVAAPSVFIFPPSDEQLKSGTASVVCLLNNFYPREAKVQWKVDNALQSGNSQESVTEQDSKDSTYSLSSTLTLSKADYEKHKVYACEVTHQGLSSPVTKSFNRGEC | – | – | – | – | – | 0.0538 | 3.39e-05 | 631000 | 11300 | 10600 | 6600 | 9450 | 8780 | 5060 | binds | no binding (tested: primary antibody 1 µg/mL) | – | –
38E HuH3L4 (antibody, human IgG1, kappa, N297A, Humanized, human IgG1 / kappa) heavy: not shown light: DIHMTQSPSSLSASVGDRVTITCRASENIYSYLAWYQQKQGKSPQLLVYNAKTLAEGVPSRFSGSGSGTQFTLKINSLQPEDFATYYCQHHYVTPLTFGQGTKLEIKRTVAAPSVFIFPPSDEQLKSGTASVVCLLNNFYPREAKVQWKVDNALQSGNSQESVTEQDSKDSTYSLSSTLTLSKADYEKHKVYACEVTHQGLSSPVTKSFNRGEC | – | – | – | – | – | 0.0766 | 4.44e-05 | 579000 | 11900 | 11200 | 7060 | 9950 | 9060 | 5300 | binds | no binding (tested: primary antibody 1 µg/mL) | 3.42 | –
38E10E1C11R (38E10E1C11 antibody recombinantly expressed by CHO cells) (antibody, mouse IgG1, kappa) heavy: not shown light: DIHMTQSPASLSASVGETVTITCRASENIYSYLAWYQQKQGKSPQLLVYNAKTLAEGVPSRFSGSGSGTQFSLKINSLQPEDFGSYYCQHHYVTPLTFGAGTKLELKRADAAPTVSIFPPSSEQLTSGGASVVCFLNNFYPKDINVKWKIDGSERQNGVLNSWTDQDSKDSTYSMSSTLTLTKDEYERHNSYTCEATHKTSTSPIVKSFNRNEC | – | – | – | – | – | – | – | – | – | – | – | – | – | – | – | – | – | ~0.2

— patent US20210403582A1 (JACOBIO PHARMACEUTICALS, published 2021)
